The record followed here is patent US20200270586A1.

In one assay the target is LgTrip 3546 (with His tag; SEQ ID NO: 51). The experiment in a line: luminescence complementation. As to conditions: modification not given.
LgTrip 3546 (with His tag; SEQ ID NO: 51), sequence (chain, as listed by the source): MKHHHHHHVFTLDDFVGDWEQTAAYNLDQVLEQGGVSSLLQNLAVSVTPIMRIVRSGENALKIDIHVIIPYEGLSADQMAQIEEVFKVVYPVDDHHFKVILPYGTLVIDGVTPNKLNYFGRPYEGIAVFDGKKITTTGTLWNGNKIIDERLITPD
Take GKMLFRVNINSWK [613]: the Kd (usually a measure of binding affinity in units of concentration) turned out to be 5250 nM. That is a single-digit micromolar value. For the molecule DKLLFKVTIQKYK [747], the Kd was found to be 100 nM. Against the preceding molecule, the Kd is about 52-fold lower. On the same count and under the same terms, the result for EKMLFRVTIGRWK [709] reads 180 nM.

As for DKLLFKVTIEKYK [755], the Kd came out at 1450 nM. Molecule EKMLFKVTIQKWK [714] had a Kd of 220 nM.

Take DKMLFRVTIQNWK [741]: the Kd was determined as 12600 nM. GKMLFRVTIGNWK [669] gave a Kd of 380 nM. This Kd lies about 33-fold lower than the previous one. For the molecule GKMLFRVTISKWK [670], the Kd turned out to be 30 nM.

As for GKMKFRVTIRSWK [719], the Kd came out at 370 nM. EKMLFTVTIEKWK [720] displayed a Kd of 360 nM. The Kd values of the last two molecules are within 1.5-fold of each other. The same measure, in the same setting: the result for DKLLFKVTIGKWK [750] reads 350 nM; that for EKMLFTVTIGKWK [710], 1290 nM; that for DKMLFKVTIEKWK [752], 320 nM. The molecule DKMLFKVTIQKWK [744] displayed a Kd of 1130 nM.

Regarding GSMLFRVTINSYK [619], the Kd turned out to be 1510 nM. Regarding EKMLFRVTIGKWK [708], the Kd turned out to be 280 nM. With RLMLFRVTINSWK [651], the Kd came out at 40 nM. On to GKMKFRVTIESWK [717], for which the Kd was 1140 nM. Same read-out and setting: next, GKMLFRVTIKKWK [673]: 40 nM. Regarding GKMLFRVTITKWK [672], the Kd worked out at 10 nM. The same measure, in the same setting: next, EQMLFRVTINSWK [656]: 6260 nM. Still for that read-out and setting: the result for DKMLFTVTIEKWK [753] reads 120 nM. As to RQMLFRVTINSWK [652], the Kd is 30 nM. KLMLFRVTINSWK [653] returned a Kd of 160 nM. This Kd is about 5.3-fold higher than that of the molecule before.

For the molecule DKMLFRVTIGNWK [740], the Kd stood at 3650 nM.

KQMLFRVTINSWK [654] returned a Kd of 60 nM. ELMLFRVTINSWK [655] came in with a Kd of 15900 nM. On the same count and under the same terms, the result for GKMLFRVWINSWK [615] reads 350 nM; that for EKMLFRVTIEKWK [707], 1120 nM; that for GKMLFRVTIEKWK [703], 110 nM. As to GKMLFRVTIKSWK [621], the Kd came out at 40 nM. Take EKLLFRVTIGKYK [726]: the Kd was determined as 640 nM. In turn, DLMLFRVTINSWK [657] came in with a Kd of 70 nM. In turn, GKMSFRVTINSWK [616] displayed a Kd of 1230 nM.

With DKLLFKVTIEKWK [754], the Kd stood at 750 nM. Compared with the last molecule, the Kd is about 1.6-fold lower. The molecule DKMLFRVTIESWK [722] displayed a Kd of 17800 nM. Against the preceding molecule, the Kd is about 24-fold higher. For RLMLFRVTIGKWK [676], the Kd was 20 nM. With DQMLFRVTINSWK [658], the Kd was 4380 nM. In turn, GKMWFRVTINSWK [617] yielded a Kd of 320 nM.

As for DKLLFKVTIGKYK [751], the Kd came out at 610 nM. EKLLFTVTIGKWK [711] returned a Kd of 500 nM. On the same count and under the same terms, next, GKMNFRVTINSWK [618]: 2690 nM; GKMKFRVTIKSWK [718]: 380 nM. In the case of DKMLFKVTIGKWK [748], the Kd was found to be 440 nM. DKLLFKVTIQKWK [746] had a Kd of 1100 nM. Compared with the last molecule, the Kd is about 2.5-fold higher. With GKMKFRVTIQSWK [716], the equilibrium dissociation constant (Kd) worked out at 290 nM. Take DKMLFRVTIGKWK [739]: the Kd was determined as 200 nM. The same measure, in the same setting: the result for GKMLFRVSINSWK [614] reads 2580 nM; that for EKMLFTVTIGRWK [712], 370 nM. In the case of GKMLFRVTINRWK [701], the Kd is 120 nM.

The next assay has the same target. Put plainly: luminescence complementation; SmTrip9 Kd. As to conditions: modification not given.
Molecule DKMLFKVTIQKYK [783] displayed a dissociation constant Kd of 240 nM.

DKLLFTVTINKWK [799] showed a Kd of 210 nM. The Kd values of the last two molecules are within 1.5-fold of each other. Still for that read-out and setting: next, KKLLFRVTIQKWK [761]: 20 nM; DKMLFKVTINKWK [787]: 730 nM. GRMLFRVTINRWR [768] displayed a Kd of 100 nM.

GKMLFKVTINKWK [781] had a Kd of 380 nM. Regarding KKMLFRVTIQKWK [760], the Kd amounted to 20 nM.

The molecule DKMLFTVTINKWK [786] showed a Kd of 500 nM. In the case of GKMLFTVTINKWK [782], the Kd was 360 nM. DKMLFKVTIEKYK [785]: the Kd was 380 nM. Molecule DKMLFTVTIEKWK [753] registered a Kd of 150 nM. In turn, ERMLFRVTIGRWR [766] returned a Kd of 70 nM. DKLLFTVTINKYK [800]: the Kd was 9750 nM. Same read-out and setting: the result for DKLLFTVTIGKWK [793] reads 540 nM; that for DKMLFRVTINKWK [784], 410 nM; that for DRMLFRVTIERWR [770], 350 nM. The molecule DKLLFTVTIGKYK [794] gave a Kd of 230 nM. This Kd lies about 1.5-fold lower than the previous one. For DRMLFRVTIQRWR [762], the Kd is 120 nM.
